The target of experiment [1] is ALK (Homo sapiens) (UniProt Q9UM73). The conditions noted are these: cited from earlier work.
The target of experiment [2] is EphA4 (Homo sapiens) (UniProt P54764). Conditions: cited from earlier work.
Experiment [3] deals with T1, endogenous wild-type ALK in H1299 human lung cancer cells (human (endogenous in H1299), UniProt Q9UM73 19-1620).
T1 construct: ALK receptor tyrosine kinase, wild type, endogenous in H1299 human lung cancer cells; also called WT ALK; source: endogenous, H1299 lysate; endogenous, in H1299 cells
Put plainly: ELISA; ALK captured from H1299 lysate on plate-bound ALK antibody (3 µg/ml); recombinant RNase1 at different concentrations in lysis buffer, overnight at 4 °C; streptavidin-HRP, TMB, OD 450 nm; Kd by GraphPad Prism. Conditions: one partner purified. On the technique in general: In an ELISA, binding on a coated surface is turned into a signal by an enzyme label.

Sequence of EphA4 (Homo sapiens) (P54764 20-547): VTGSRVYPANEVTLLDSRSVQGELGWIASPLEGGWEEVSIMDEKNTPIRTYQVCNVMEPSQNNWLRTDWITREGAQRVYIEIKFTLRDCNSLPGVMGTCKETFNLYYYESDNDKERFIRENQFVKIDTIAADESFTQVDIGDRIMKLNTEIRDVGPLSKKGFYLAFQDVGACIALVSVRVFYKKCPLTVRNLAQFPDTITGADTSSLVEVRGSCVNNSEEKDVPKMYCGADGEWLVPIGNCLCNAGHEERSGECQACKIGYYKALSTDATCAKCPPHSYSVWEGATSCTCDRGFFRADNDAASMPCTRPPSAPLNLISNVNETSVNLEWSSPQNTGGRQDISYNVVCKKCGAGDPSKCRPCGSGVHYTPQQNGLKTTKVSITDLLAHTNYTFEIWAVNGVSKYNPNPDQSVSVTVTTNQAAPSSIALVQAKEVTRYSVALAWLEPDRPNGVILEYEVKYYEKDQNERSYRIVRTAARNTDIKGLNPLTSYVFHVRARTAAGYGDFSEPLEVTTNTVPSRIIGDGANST
T1 sequence (Q9UM73 19-1620): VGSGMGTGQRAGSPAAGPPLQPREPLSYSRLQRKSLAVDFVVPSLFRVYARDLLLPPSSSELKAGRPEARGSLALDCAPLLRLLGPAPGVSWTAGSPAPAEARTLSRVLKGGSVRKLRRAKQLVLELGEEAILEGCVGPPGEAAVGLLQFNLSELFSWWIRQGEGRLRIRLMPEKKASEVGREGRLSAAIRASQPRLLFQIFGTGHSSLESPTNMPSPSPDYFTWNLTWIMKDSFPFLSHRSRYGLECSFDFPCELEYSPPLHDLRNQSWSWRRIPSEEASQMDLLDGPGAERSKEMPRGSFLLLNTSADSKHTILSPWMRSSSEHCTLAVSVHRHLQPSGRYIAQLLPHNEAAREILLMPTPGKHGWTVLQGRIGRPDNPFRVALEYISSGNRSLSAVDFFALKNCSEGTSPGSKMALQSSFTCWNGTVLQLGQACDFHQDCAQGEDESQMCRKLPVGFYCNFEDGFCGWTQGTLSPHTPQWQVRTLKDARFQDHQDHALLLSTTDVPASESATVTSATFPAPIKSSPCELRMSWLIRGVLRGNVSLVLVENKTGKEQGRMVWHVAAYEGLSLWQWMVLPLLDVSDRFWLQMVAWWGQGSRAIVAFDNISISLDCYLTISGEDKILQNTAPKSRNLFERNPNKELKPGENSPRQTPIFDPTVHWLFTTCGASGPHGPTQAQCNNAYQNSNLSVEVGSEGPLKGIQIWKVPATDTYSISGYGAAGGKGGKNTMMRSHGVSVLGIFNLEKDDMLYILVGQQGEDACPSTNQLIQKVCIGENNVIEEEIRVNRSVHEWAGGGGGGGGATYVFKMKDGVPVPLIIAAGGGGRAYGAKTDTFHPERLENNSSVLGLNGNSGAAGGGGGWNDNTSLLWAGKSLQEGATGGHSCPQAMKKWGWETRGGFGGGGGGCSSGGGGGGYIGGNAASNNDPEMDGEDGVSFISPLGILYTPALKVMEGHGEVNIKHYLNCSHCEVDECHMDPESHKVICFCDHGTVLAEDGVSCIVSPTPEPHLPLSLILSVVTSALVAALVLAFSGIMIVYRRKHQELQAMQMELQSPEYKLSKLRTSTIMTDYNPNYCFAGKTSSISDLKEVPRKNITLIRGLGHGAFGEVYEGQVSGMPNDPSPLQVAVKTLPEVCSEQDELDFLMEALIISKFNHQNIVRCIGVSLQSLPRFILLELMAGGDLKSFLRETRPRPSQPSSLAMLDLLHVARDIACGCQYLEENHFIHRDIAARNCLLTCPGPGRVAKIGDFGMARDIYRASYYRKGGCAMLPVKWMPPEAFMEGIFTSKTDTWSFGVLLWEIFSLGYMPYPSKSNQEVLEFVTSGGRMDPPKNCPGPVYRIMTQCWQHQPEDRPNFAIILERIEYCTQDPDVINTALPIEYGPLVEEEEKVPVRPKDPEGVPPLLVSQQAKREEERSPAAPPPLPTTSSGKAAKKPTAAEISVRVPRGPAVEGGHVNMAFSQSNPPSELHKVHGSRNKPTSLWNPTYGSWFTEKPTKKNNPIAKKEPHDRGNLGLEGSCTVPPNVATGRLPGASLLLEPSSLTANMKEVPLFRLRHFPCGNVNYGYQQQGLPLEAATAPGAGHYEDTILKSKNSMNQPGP
Sequence of ALK (Homo sapiens) (Q9UM73 19-1038): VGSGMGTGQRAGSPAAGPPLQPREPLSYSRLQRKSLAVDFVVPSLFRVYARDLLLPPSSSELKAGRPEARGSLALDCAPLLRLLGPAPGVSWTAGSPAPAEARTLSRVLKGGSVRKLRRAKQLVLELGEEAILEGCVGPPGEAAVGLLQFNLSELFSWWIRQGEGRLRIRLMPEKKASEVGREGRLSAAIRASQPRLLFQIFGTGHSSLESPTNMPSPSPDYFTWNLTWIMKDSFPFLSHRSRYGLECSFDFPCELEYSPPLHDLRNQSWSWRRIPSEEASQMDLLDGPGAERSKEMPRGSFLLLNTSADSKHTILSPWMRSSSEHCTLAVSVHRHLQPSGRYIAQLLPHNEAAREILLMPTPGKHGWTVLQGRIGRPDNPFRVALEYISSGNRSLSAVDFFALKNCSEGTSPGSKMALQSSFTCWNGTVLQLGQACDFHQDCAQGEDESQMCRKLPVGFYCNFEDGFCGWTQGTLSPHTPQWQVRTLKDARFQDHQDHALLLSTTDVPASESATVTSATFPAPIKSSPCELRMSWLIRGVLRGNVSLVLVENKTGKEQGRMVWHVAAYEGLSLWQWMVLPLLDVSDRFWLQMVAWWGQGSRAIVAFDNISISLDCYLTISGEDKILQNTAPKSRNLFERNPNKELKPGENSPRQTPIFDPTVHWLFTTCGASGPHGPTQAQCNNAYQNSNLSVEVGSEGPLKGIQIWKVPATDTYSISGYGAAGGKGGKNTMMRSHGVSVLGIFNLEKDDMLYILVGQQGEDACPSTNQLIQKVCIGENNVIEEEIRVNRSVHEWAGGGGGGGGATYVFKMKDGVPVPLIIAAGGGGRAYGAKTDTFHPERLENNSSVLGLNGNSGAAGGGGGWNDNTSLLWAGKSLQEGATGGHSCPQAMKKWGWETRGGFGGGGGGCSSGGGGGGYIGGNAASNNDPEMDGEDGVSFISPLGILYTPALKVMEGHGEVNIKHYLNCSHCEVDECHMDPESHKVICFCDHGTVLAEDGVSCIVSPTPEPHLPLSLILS

Broadly, the Kd is the concentration at which binding is half-saturated. In the case of ALKAL2 (from UniProt Q6UX46), in experiment [1], the Kd is 40 nM. Consider RNase1 (from UniProt P07998), for which the Kd in experiment [2] is 92.4 nM.

B1: recombinantly purified 6x N-terminal His-tagged RNase1 (ligand, human, UniProt P07998 29-156, looked up)
chain: KESRAKKFQRQHMDSDSSPSSSSTYCNQMMRRRNMTQGRCKPVNTFVHEPLVDVQNVCFQEKVTCKNGQGNCYKSNSSMHITDCRLTNGSRYPNCAYRTSPKERHIIVACEGSPYVPVHFDASVEDST
notes: human secretory ribonuclease 1 (RNase1); cDNA cloned into the prokaryotic vector PSJ3 with N-terminal 6His tag; a bacterial construct is likely to lack the signal peptide (surmise); also called R1; human secretory ribonuclease 1; source: E. coli BL21, purified (HisTrap column); not shown: His6, N-terminal, kept
For B1, the Kd in experiment [3] is 43 nM.

Values taken from PMC12006399, “RNase1-driven ALK-activation is an oncogenic driver and therapeutic target in non-small cell lung cancer” (Signal Transduction and Targeted Therapy, 2025).
